Data on eight molecules can be found in patent US20230365684A1 (Janssen / Centocor, published 2023).

Like-named read-outs stand apart in the source and are kept apart here.

In experiment [1] the target is T1, human CD33 on cells (MOLM-13, Kasumi-1, OCI-AML-3, Kasumi-3) (human, UniProt P20138 18-364).
T1 construct: whole, on cells; also called CD33 expressing cells; CD33+ cell lines
In words: FACS binding on MOLM-13 cells. (In general: Flow cytometry measures light scatter and fluorescence of single cells or particles in a stream.)

The target of experiment [2] is T1, human CD33 on cells (MOLM-13, Kasumi-1, …). In words: FACS binding on Kasumi-1 cells.
For experiment [3] the target is unchanged. In words: FACS binding on OCI-AML-3 cells.
For experiment [4] the target is unchanged. In words: flow cytometry on MOLM-13 cells, 4 °C, serial dilutions of the antibody.
Description: (§1) Cells were harvested, washed once with PBS and then stained with the fixable viability dye at room temperature for 30 min. Following incubation, cells were washed twice with FACS buffer (PBS+2% FBS). Cells were then used for binding assay with test antibodies. 100,000 cells were stained with the test antibodies in a 100 ul staining volume. Antibodies for staining were diluted in FACS buffer and incubated with the cells for 40 mins on ice, followed by washing 2X with FACS buffer. Test antibodies were then detected using the PE conjugated Goat F(ab′)2 Anti-Human IgG-Fc (ab98596; Abcam) for 40 minutes on ice. Following washing, data was acquired on the Novocyte flow cytometer (ACEA). Cells were gated on FSC/SSC, followed by live cell gating and doublet discrimination. Data was analyzed using Flow Jo (BD).
(§2) Median fluorescence intensity values were used to plot a 4-parameter non-linear regression analysis curve after subtracting the MFI of the secondary only sample.
(§3) The binding EC₅₀ values of CD33 antibodies to high (MOLM-13), medium (Kasumi-1) and low (OCI-AML-3) cell lines were assayed. Binding was carried out at 4° C. with serial dilutions of the antibody.
For experiment [5] the target is unchanged. In words: flow cytometry on Kasumi-1 cells, 4 °C, serial dilutions of the antibody.
Description: as §1, §2, §3
The target is the same in experiment [6]. Kind of experiment: flow cytometry on OCI-AML-3 cells, 4 °C, serial dilutions of the antibody.
Description: as §1, §2, §3
For experiment [7] the target is unchanged. Kind of experiment: flow cytometry on OCI-AML-3 cells, 4 °C, detection with PE goat F(ab')2 anti-human IgG-Fc [contd].
For experiment [8], the target named is T2, human CD33 (full length ECD), recombinant (human, UniProt P20138 18-259).
T2 construct: extracellular domain; Tag or HSA fusion partner unknown; also called hu CD33 (FL ECD); hCD33-FL ECD
T2 sequence (P20138 18-259): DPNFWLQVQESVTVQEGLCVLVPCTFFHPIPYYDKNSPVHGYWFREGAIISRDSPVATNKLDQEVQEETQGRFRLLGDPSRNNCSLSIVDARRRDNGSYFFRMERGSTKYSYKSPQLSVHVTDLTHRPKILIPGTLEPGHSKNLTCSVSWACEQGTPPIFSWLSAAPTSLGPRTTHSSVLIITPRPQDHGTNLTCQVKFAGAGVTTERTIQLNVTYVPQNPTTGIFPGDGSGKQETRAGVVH
Kind of experiment: SPR (Biacore 8K), vHH-mono-Fc captured by anti-human Fc, antigen in solution. (In general: Surface plasmon resonance follows binding to a sensor surface in real time, without labels.)
Description: (§4) The binding affinity of anti-CD33 antibodies and Llama vHHs to the recombinant human CD33 (FL ECD or IgC2 domain) was determined by surface plasmon resonance (SPR) using Biacore 8K instrument. […] The association and dissociation were monitored for 2 and 30 minutes, respectively, using a flow rate of 50 μL/min. Raw binding data was referenced by subtracting the analyte binding signals from blanks and analyzed using a 1:1 Langmuir binding model using the Biacore software to obtain the kinetics which were used to calculate the binding affinity.
(§5) The anti-CD33 Llama vHHs on a mono-Fc backbone were captured using an anti-human Fc antibody and the antigens were injected in solution.

Experiment [9] deals with T3, human CD33 IgC2 domain, recombinant (human, UniProt P20138 136-259).
T3 construct: domain: IgC2; also called hu CD33 (IgC2); hCD33-IgC2
T3 sequence (P20138 136-259 limits assumed): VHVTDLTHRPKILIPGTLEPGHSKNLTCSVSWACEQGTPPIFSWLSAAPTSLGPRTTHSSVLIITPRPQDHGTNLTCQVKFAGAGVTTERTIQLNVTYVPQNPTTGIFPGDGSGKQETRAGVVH
The experiment is described as above.
Description: as §4, §5

Experiment [10] deals with T3, human CD33 IgC2 domain, recombinant. In words: SPR, Biacore 8K, 25 °C, vHH-mono-Fc captured by anti-Fc antibody, CD33-hu-domain injected as analyte, 1:1 binding model.
Description: as §4, §5
In experiment [11] the target is T2, human CD33 (full length ECD), …. In words: SPR, Biacore 8K, 25 °C, vHH-mono-Fc captured by anti-Fc antibody, CD33-hu-FL injected as analyte, 1:1 binding model [contd].
Description: as §4, §5
Experiment [12] shares this target. The experiment is described as above. This is another data set of the same source.
Description: as §4, §5
The target in experiment [13] is T3, human CD33 IgC2 domain, recombinant. Kind of experiment: SPR, Biacore 8K, 25 °C, vHH-mono-Fc captured by anti-Fc antibody, CD33-hu-domain injected as analyte, 1:1 binding model [contd].
Description: as §4, §5
Experiment [14] concerns the target T1, human CD33 on cells (MOLM-13, Kasumi-1, …). Kind of experiment: flow cytometry on MOLM-13 cells, 4 °C, detection with PE goat F(ab')2 anti-human IgG-Fc.
Description: MOLM-13, Kasumi-1, OCI-AML-3 and HDLM-2 cells were stained for viability by fixable violet dead cell stain (L34955, ThermoFisher) according to the manufacturer's protocol. Cells were harvested, washed once with PBS and then stained with the fixable viability dye at room temperature for 30 min. Following incubation, cells were washed twice with FACS buffer (PBS+2% FBS). Cells were then used for binding assay with test antibodies. 100,000 cells were stained with the test antibodies in a 100 ul staining volume. Antibodies for staining were diluted in FACS buffer and incubated with the cells for 40 mins on ice, followed by washing 2X with FACS buffer. Test antibodies were then detected using the PE conjugated Goat F(ab′)2 Anti-Human IgG-Fc (ab98596; Abcam) for 40 minutes on ice. Following washing, data was acquired on the Novocyte flow cytometer (ACEA). […] Data was analyzed using Flow Jo (BD).
as §2
Binding was performed by incubating the cells with the serial dilutions of the CD33 antibody at 4° C. followed by detection with PE conjugated Goat F(ab′)2 Anti-Human IgG-Fc antibody. […] Median fluorescence intensity (MFI) versus log concentration of antibody are plotted.
The target is the same in experiment [15]. Kind of experiment: flow cytometry on OCI-AML-3 cells, 4 °C, detection with PE goat F(ab')2 anti-human IgG-Fc [contd]. This is another data set of the same source.
Experiment [16] shares this target. In words: flow cytometry on MOLM-13 cells, 4 °C, detection with PE goat F(ab')2 anti-human IgG-Fc. The source holds these as a separate data set.
For experiment [17], the target named is T2, human CD33 (full length ECD), …. In words: SPR (Biacore 8K), antibody captured by anti-human Fc, antigen in solution.
Description: (§6) Affinities (KD) for the interaction of anti-CD33 antibodies human CD33 (full length ECD and IgC2 domain) were obtained by SPR. The anti-CD33 antibodies were captured using an anti-human Fc antibody and the antigens were injected in solution.
as §4
For experiment [18], the target named is T3, human CD33 IgC2 domain, recombinant. The description is as above.
Description: as §6, §4

T1 sequence (P20138 18-364): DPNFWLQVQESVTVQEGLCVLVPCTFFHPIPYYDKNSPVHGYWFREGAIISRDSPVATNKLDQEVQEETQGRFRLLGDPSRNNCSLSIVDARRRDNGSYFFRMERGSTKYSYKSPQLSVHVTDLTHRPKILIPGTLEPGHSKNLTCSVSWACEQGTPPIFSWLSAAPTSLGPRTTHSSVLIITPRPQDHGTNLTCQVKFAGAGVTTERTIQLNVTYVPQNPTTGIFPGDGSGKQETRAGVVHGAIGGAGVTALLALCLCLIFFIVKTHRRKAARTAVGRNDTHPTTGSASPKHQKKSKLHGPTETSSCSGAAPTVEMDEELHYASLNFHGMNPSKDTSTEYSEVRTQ

B1: C33B904 (antibody, V domains shown)
VH: EVQLVESGGGLVQPGRSLRLSCAASGFTFDDYAMHWVRQAPGKGLEWVSGIGWSGGSIVYADSVKGRFTISRDNAKNSLYLQMNSLRAEDTALYYCAKDSPYGDFFDYWGQGTLVTVSS
VL: DIVMTQSPDSLAVSLGERATINCKSSQTVFYSSNNKNYLAWYQQKPGQPPKLLISWASTRKSGVPDRFSGSGSGTDFTLTVSSLQAEDVAVYYCQHYYSTPYTFGQGTKLEIK
notes: also called anti-CD33 antibody (clone C33B904); anti-CD33 clone C33B904
As usually defined, the EC50 is the concentration needed to bring the measured effect to its halfway point. Lower therefore signals higher potency in that assay. In the case of B1, the results for the EC50 in experiment [1], in experiment [2] and in [3] were 134 nM, 82.2 nM and 16.4 nM, respectively.

B2: C33B806.006 (antibody, V domains shown)
VH: QLQLQESGPGLVKPSETLSLTCTVSGGSISSSSYYWGWIRQPPGKGLDWIGSINYSGSTYYNPSLKSRVTISVDTSKIQFSLKLRSVTAADTAVYYCARLDGYESPFDYWGQGTLVTVSS
VL: DIQMTQSPSSVSASVGDRVTITCRASQGISSWLAWYQQKPGKAPKLLIYAASSLQSGVPSRFSGSGSGTDFTLTISSLQPEDFATYYCQQANSFPFTFGPGTKVDIK
Usually EC50 (read off the curve) stands for the concentration needed to bring the measured effect to its halfway point. A high value points to lower potency in that assay. In the case of B2, the half-maximal effective concentration (EC50) in experiment [4] worked out at 35.6 nM; in experiment [5] it was 0.13 nM; in experiment [6] it was 15.3 nM. Also, in experiment [7], the “EC50 (read off the curve)” value is ~2 µg/mL.

B3: C33B1780 (llama vHH on mono-Fc backbone) (Fc fusion)
chain: EVQLVESGGGLVQPGGSLRLSCAVFGFSLSDYAIGWFRQAPGKEREKVSCISESDGRTYLSDSVKSRFTISRDNGKNTVYLQMNNLKPDDTGVYYCATVDQAISESSYHCEKGFGSWGQGTQVTVSS
notes: not shown: mono-Fc backbone
What is called Kd is the constant that tells how readily two partners part at equilibrium. One may read the kon as the rate constant with which the complex forms. A word on the koff: it is the first-order rate constant of dissociation. For B3, the Kd in [8] worked out at 0.847 nM; in experiment [9] it was 3.38 nM. Also, the kon in experiment [10] was 962000 M⁻¹ s⁻¹; in experiment [11] it was 1.38e+06 M⁻¹ s⁻¹. Further, in [11], the koff worked out at 0.00117 s⁻¹.

B4: C33B1785 (llama vHH on mono-Fc backbone) (Fc fusion)
chain: QVQLVESGGGSVQPGGSLRLSCAVFGFSLSDYAIGWFRQAPGKEREKVSCISESDGRTYLSDSVKSRFTISRDNGKNTVYLQMNNLKPDDTGVYYCATVDQAISESSYHCEKGFGSWGQGTQVTVSS
notes: not shown: mono-Fc backbone
In the case of B4, the figures for the Kd in experiment [8] and in [9] were 0.661 nM and 3.31 nM, respectively. Moreover, the koff worked out at 0.000928 s⁻¹ in [12] and 0.0034 s⁻¹ in experiment [13]. In addition, the results for the association rate constant (kon) in [12] and in [13] were 1.4e+06 M⁻¹ s⁻¹ and 1.03e+06 M⁻¹ s⁻¹, respectively.

B5: C33B836.006 (antibody, V domains shown)
VH: QVQLVQSGSELRKPGASVKVSCKASGYTFTNYAMNWVRQAPGQGLEWMGWINTNTGNPTYAQGFTGRFVFSLDTSVSSAYLQISSLKAEDTAMYYCATDRDRGTDYWGQGTLVTVSS
VL: QSALTQPASVSGSPGQSITISCTGTSSDVGDYNYVSWYQQHPGKVPKLMIYDVSNRPSGVSNRFSGSMSGNTASLTISGLQAEDEADYYCSSYSSSSALEVFGGGTKLTVL
notes: also called sC33B836.006
In the case of B5, the values for the EC50 in [4], in experiment [5] and in experiment [6] were 0.5 nM, 17.1 nM and 0.46 nM, respectively. Besides, the “EC50 (read off the curve)” value in experiment [14] and in [7] was ~0.08 µg/mL throughout.

B6: C33B1477 (antibody, V domains shown)
VH: EVQLVESGGGLVQPGGSLKVSCEASGFTFSVSAIHWVRQASGKGLEWIGRIRSKGNSYATAYAASVKGRFTISRDDSKNTAYLQMDSLKTEDTAVYYCTRHNDKWNYYGLDVWGQGTTVTVSS
VL: DIVMTQSPLSLPVTPGEPASISCKSSQSLLFSNGYKFLDWYLQRPGQSPQLLIYLGSYRASGVPDRFSGSGSGTDFTLKISRVEAEDVGLYYCMQALQTPPTFGGGTKVEIK
notes: also called sCD33B1477
Turning to B6, the values for the concentration for a half-maximal effect (EC50) in experiment [4] and in experiment [6] were 56 nM and 0.6 nM, respectively. Moreover, the “EC50 (read off the curve)” value in experiment [15] was ~0.09 µg/mL.

B7: C33B1484 (antibody, V domains shown)
VH: EVQLVESGGGLVQPGGSLKVSCEASGFTFSVFAIHWVRQASGKGLEWIGRIRSKGNSYATAYDVSVKGRFTISRDDSKNTAYLQMDSLKTEDTAVYYCTRHNDKWNYYGLDVWGQGTTVTVSS
VL: DIVMTQSPLSLPVTPGEPASISCKSSQSLLFSNGYKFLDWYLQRPGQSPQLLIYLGSYRASGVPDRFSGSGSGTDFTLKISRVEAEDVGLYYCMQALQTPPTFGQGTKVEIK
notes: also called sCD33B1484
With B7, the binding result in experiment [16] is “binds”.

B8: C33B1522 (antibody, V domains shown)
VH: QVQLQESGPGLVKPSETLSLTCTVSGGSISSYYWGWIRQPPGKGLEWIGYIYYSGSTNYNPSLKSRVTISVDTSKNQFSLKLSSVTAADTAVYYCARMWEILGFDPWGQGTLVTVS
VL: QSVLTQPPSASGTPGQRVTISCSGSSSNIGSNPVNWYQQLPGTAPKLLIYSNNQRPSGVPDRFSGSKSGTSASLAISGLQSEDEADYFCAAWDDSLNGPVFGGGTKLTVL
B8: the Kd in experiment [17] was > 10 nM. Also, the binding result in experiment [18] is recorded as “no binding (tested: 40 nM-1.6 nM CD33 antigen)”. Besides, the EC50 is 32.7 nM in [4] and 73.4 nM in [5].
